The text below walks through data of publication PMC10695398 (PLOS Pathogens, 2023).

The experiment has as its target T1, His6-tagged STAT3, bacterially derived (UniProt P40763 1-770).
T1 construct: also called His6-STAT3; His6-St3; source: E. coli BL21(DE3), purified (Ni-NTA, eluted with imidazole)
Kind of experiment: pull-down. Conditions: both partners purified.

T1 sequence (P40763 whole entry): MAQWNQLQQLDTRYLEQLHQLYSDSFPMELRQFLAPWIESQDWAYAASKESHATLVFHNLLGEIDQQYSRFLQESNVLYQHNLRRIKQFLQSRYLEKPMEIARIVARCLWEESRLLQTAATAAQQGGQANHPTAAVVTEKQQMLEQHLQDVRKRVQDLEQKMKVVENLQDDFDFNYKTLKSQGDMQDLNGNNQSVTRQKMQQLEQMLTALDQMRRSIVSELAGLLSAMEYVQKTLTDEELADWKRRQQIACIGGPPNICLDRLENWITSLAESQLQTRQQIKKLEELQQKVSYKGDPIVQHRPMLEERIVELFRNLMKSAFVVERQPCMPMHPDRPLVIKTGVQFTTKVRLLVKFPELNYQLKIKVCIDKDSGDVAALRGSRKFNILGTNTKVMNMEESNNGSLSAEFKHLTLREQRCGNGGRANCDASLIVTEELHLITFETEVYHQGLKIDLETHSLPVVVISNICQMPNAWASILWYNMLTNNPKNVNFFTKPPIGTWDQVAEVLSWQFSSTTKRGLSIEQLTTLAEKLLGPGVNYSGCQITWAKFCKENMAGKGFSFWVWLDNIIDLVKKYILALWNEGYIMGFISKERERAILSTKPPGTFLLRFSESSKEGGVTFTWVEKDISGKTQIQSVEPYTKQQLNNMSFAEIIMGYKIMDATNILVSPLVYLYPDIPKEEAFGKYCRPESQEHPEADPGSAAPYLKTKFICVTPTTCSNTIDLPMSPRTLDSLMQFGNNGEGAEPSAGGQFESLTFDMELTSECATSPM

B1: GST-tagged vIRF-1, bacterially derived (natural protein)
chain: MDPGQRPNPFGAPGAIPKKPCLSQGSPGTSGSGAPCDEPSRSESPGEGPSGTGGSAAAGDITRQAVVAAITEWSRTRQLRISTGASEGKASIKDWIVCQVNSGKFPGVEWEDEERTRFRIPVTPLADPCFEWRRDGELGVVYIRERGNMPVDASFKGTRGRRRMLAALRRTRGLQEIGKGISQDGHHFLVFRVRKPEEEQCVECGVVAGAVHDFNNMARLLQEGFFSPGQCLPGEIVTPVPSCTTAEGQEAVIDWGRLFIRMYYNGEQVHELLTTSQSGCRISSALRRDPAVHYCAVGSPGQVWLPNVPNLACEIAKRELCDTLDACAKGILLTSSCNGIFCVCYHNGPVHFIGNTVPPDSGPLLLPQGKPTRIFNPNTFLVGLANSPLPAPSHVTCPLVKLWLGKPVAVGKLEPHAPSPRDFAARCSNFSDACVVLEIMPKPLWDAMQ
notes: also called GST-fused vIRF-1; vIRF-1-GST
For B1, the binding result was “binds”.
